These results are taken from patent US20240279325A1 (Chugai, published 2024).

Common to all, as to assay: SPR (Biacore), antibody captured, FcγR analyte
For orientation: SPR reads the build-up and loss of mass on a sensor chip optically.

Experiment [1] has as its target T1, human FcγRIIa type R (allotype R131) extracellular domain with C-terminal His tag (human, UniProt P12318 34-217).
T1 construct: extracellular domain; also called FcγRIIaR; not shown: His tag at the C terminus
T1 sequence (looked up): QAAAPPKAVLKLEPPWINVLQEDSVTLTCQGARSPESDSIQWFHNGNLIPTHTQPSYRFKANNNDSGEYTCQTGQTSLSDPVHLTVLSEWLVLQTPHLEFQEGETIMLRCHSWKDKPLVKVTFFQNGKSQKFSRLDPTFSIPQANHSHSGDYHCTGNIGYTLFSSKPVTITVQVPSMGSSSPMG

Experiment [2] has as its target T2, human FcγRIIa type H (allotype H131) extracellular domain with C-terminal His tag (human, UniProt P12318 34-217).
T2 construct: extracellular domain; also called FcγRIIaH; not shown: His tag at the C terminus
T2 sequence (looked up): T1 sequence (looked up) with R134H

In experiment [3] the target is T2, human FcγRIIa type H (allotype H131) …. The source holds these as a separate data set.
For experiment [4], the target named is T3, human FcγRIa extracellular domain with C-terminal His tag (human, UniProt P12314 16-292).
T3 construct: not shown: His tag at the C terminus
T3 sequence (P12314 16-292): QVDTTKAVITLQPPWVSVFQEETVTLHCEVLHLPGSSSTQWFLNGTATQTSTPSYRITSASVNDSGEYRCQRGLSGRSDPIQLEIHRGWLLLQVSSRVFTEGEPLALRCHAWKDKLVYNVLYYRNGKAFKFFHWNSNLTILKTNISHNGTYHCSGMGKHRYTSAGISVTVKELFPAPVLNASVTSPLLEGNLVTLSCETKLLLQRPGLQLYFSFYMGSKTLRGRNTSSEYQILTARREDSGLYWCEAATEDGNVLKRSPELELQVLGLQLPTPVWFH

Residue numbers refer to the chain shown, from its start. Read-outs that look alike come from different tables or passages of the source.

B1: IL6R-BP183/IL6R-L (antibody, human IgG1, kappa, name in EU numbering)
heavy: QVQLQESGPGLVKPSETLSLTCAVSGHSISHDHAWSWVRQPPGEGLEWIGFISYSGITNYNPSLQGRVTISRDNSKNTLYLQMNSLRAEDTAVYYCARSLARTTAMDYWGEGTLVTVSSASTKGPSVFPLAPSSKSTSGGTAALGCLVKDYFPEPVTVSWNSGALTSGVHTFPAVLQSSGLYSLSSVVTVPSSSLGTQTYICNVNHKPSNTKVDKKVEPKSCDKTHTCPPCPAPDYLGGDSVFLFPPKPKDTLMISRTPEVTCVVVDVSHEDGEVKFNWYVDGVEVHNAKTKPREEQYNSTYRVVSVLTVLHQDWLNGKEYKCKVSNAALPKPIEKTISKAKGQPREPQVYTLPPSRDELTKNQVSLTCLVKGFYPSDIAVEWESNGQPENNYKTTPPVLDSDGSFFLYSKLTVDKSRWQQGNVFSCSVMHEALHNHYTQESLSLSP
light: not shown
notes: EU numbering; copies: 2 + 2
For B1, in experiment [1], the Kd (as a rule, the equilibrium constant for the complex coming apart) turned out to be 1.6 µM. This counts as single-digit micromolar.

B2: IL6R-BP208/IL6R-L (antibody, human IgG1, kappa, name in EU numbering)
heavy: B1 heavy with Y236L, G239D, H270D, A328K, K332R
light: not shown
notes: EU numbering; copies: 2 + 2
Molecule B2 yielded a Kd in experiment [2] of 83 µM. That is a double-digit micromolar value.

B3: IL6R-BP201/IL6R-L (antibody, human IgG1, kappa, name in EU numbering)
heavy: B1 heavy with Y236L, G239D, A328K, K332R
light: not shown
notes: EU numbering; copies: 2 + 2
For the molecule B3, the Kd in experiment [2] turned out to be 69 µM. The Kd values of the last two molecules are within 1.5-fold of each other.

B4: IL6R-BP241/IL6R-L (antibody, human IgG1, kappa, name in EU numbering)
heavy: B1 heavy with Y236L, G239D, H270D, A328D, K332R
light: not shown
notes: EU numbering; copies: 2 + 2
As for B4, binding in experiment [3] was put at a Kd of 9 µM.

B5: IL6R-BP184/IL6R-L (antibody, human IgG1, kappa, name in EU numbering)
heavy: B1 heavy with Y236L, A328K
light: not shown
notes: EU numbering; copies: 2 + 2
Turning to B5, in experiment [1], the affinity, expressed as Kd, was 1.3 µM.

B6: IL6R-BP234/IL6R-L (antibody, human IgG1, kappa, name in EU numbering)
heavy: B1 heavy with G239D, S269Q, H270D, Y298D, A328D
light: not shown
notes: EU numbering; copies: 2 + 2
Consider B6, for which the dissociation constant Kd in experiment [3] stood at 20 µM.

B7: IL6R-BP192/IL6R-L (antibody, human IgG1, kappa, name in EU numbering)
heavy: B1 heavy with Y236L, H270D, Y298D, A328K
light: not shown
notes: EU numbering; copies: 2 + 2
In experiment [4], B7 had a Kd of 0.0056 µM. This lies in the single-digit nanomolar range.

B8: IL6R-BP190/IL6R-L (antibody, human IgG1, kappa, name in EU numbering)
heavy: B1 heavy with D235E, Y236L, G239D, H270D, A328K
light: not shown
notes: EU numbering; copies: 2 + 2
In experiment [4], B8 gave a Kd of 0.053 µM.

B9: IL6R-BP185/IL6R-L (antibody, human IgG1, kappa, name in EU numbering)
heavy: B1 heavy with G239D
light: not shown
notes: EU numbering; copies: 2 + 2
In experiment [4], B9 returned an equilibrium dissociation constant (Kd) of 0.053 µM.

B10: IL6R-BP199/IL6R-L (antibody, human IgG1, kappa, name in EU numbering)
heavy: B1 heavy with Y236L, G273P, A328D, K332R
light: not shown
notes: EU numbering; copies: 2 + 2
Take B10: in experiment [4], the Kd came to 0.0054 µM.

B11: IL6R-BP214/IL6R-L (antibody, human IgG1, kappa, name in EU numbering)
heavy: B1 heavy with G239D, G273P, Y298D, A328D
light: not shown
notes: EU numbering; copies: 2 + 2
The molecule B11 registered a Kd in experiment [2] of 92 µM.

B12: IL6R-BP243/IL6R-L (antibody, human IgG1, kappa, name in EU numbering)
heavy: B1 heavy with G239D, H270D, A328K, K332R
light: not shown
notes: EU numbering; copies: 2 + 2
For B12, the Kd in experiment [3] was determined as 6 µM.

B13: IL6R-BP238/IL6R-L (antibody, human IgG1, kappa, name in EU numbering)
heavy: B1 heavy with G239D, H270D, Y298D, K332R
light: not shown
notes: EU numbering; copies: 2 + 2
As for B13, the affinity in experiment [3], expressed as Kd, was 7 µM.

B14: IL6R-BP210/IL6R-L (antibody, human IgG1, kappa, name in EU numbering)
heavy: B1 heavy with D235E, Y236L, G239D, H270D, A328K, K332R
light: not shown
notes: EU numbering; copies: 2 + 2
With B14, the Kd came out at 0.055 µM in experiment [4] and 95 µM in experiment [2].

B15: IL6R-BP193/IL6R-L (antibody, human IgG1, kappa, name in EU numbering)
heavy: B1 heavy with Y236L, H270D, A328K
light: not shown
notes: EU numbering; copies: 2 + 2
In the case of B15, the affinity in experiment [4], expressed as Kd, was 0.0053 µM.

B16: IL6R-BP206/IL6R-L (antibody, human IgG1, kappa, name in EU numbering)
heavy: B1 heavy with Y236L, A328K, K332R
light: not shown
notes: EU numbering; copies: 2 + 2
As for B16, in experiment [1], the Kd was 5.1 µM. That is a single-digit micromolar value.

B17: IL6R-BP200/IL6R-L (antibody, human IgG1, kappa, name in EU numbering)
heavy: B1 heavy with G239D, A328D, K332R
light: not shown
notes: EU numbering; copies: 2 + 2
In the case of B17, the Kd in experiment [1] worked out at 0.68 µM; in experiment [2] it was 42 µM.
